Data on 3 substances can be found in publication PMC3814001.

For experiment [1], the target named is PKA holoenzyme (PKA_(holo)) formed by wild-type RIIα and PKAc (mouse) (UniProt P12367). Put plainly: native gel or EMSA; SEC peak fraction on precast 3–8% Tris-Acetate native gels, 50 mM Tris pH 8.3, 50 mM Tricine, silver staining. Background: A gel shift assay detects complexes by their altered migration in electrophoresis.
The target of experiment [2] is RIIα (type IIα regulatory subunit of PKA), wild type, RIIα-6xHis (mouse) (UniProt P12367). Described as above.
The target in experiment [3] is AKAP18γ (human γ isoform of AKAP18), strep-II and 6xHis tagged (human).

AKAP18γ–GFP (human), sequence (Q9P0M2 whole entry): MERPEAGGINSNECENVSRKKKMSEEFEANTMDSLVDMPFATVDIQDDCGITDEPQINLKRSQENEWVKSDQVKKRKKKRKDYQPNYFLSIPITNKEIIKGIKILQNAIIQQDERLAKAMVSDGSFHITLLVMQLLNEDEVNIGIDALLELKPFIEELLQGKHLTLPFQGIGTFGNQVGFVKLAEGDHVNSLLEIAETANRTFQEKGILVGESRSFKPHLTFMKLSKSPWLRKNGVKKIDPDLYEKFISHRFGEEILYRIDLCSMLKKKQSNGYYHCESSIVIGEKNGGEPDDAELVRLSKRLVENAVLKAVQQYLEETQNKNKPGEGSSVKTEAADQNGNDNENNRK

In turn, “AKAP18γ (human γ isoform of AKAP18), strep-II and 6xHis tagged (natural protein)” showed a stoichiometry N (AKAP18γ per RIIα dimer with two PKAc) in experiment [1] of 1.
As usually defined, the stoichiometry N is the number of molecules, sites or subunits per partner or assembly. “RIIα (type IIα regulatory subunit of PKA), wild type, RIIα-6xHis (from UniProt P12367 1-401) (natural protein; other documents disagree on this pair)” gave a stoichiometry N in experiment [2] of 2 subunits.
Substance “PDE4D (type 4 phosphodiesterase isoforms PDE4D3 / PDE4D5) (enzyme)” displayed a cAMP phosphodiesterase activity in anti-GFP immune complexes from HEK293 cells, fold over GFP controls or rolipram-treated samples in the experiment with AKAP18γ–GFP (human) of 3.27 fold. In experiment [3], this substance returned a basal (cAMP-independent) 32P incorporation into PDE4D by PKA holoenzyme with against without AKAP18γ, autoradiography; the substrate here was purified MBP-PDE4D3 of 1.87 fold.
